In patent publication US20100092481A1 (INSTITUTE FOR RESEARCH IN BIOMEDICINE, published 2010):

Tests used:
[1] = biological target: T1, hCMV gH, gL, UL128, UL130 and UL131A co-expressed in HEK293T cells (human cytomegalovirus, UniProt P12824 24-743; P16832 31-278; P16837 1-171; P16772 1-214); experiment: cell cross-competition, 20x excess; competitor 9I6-biotin
T1 construct: whole, on cells; also called gH + gL + UL128 + UL130 + UL131A; gH/gL/UL128-130 complex

[2] = biological target: T1, hCMV gH, gL, UL128, UL130 and UL131A …; experiment: cell cross-competition, 20x excess; competitor 2F4-biotin
[3] = biological target: T2, hCMV UL128, UL130 and UL131A co-expressed in HEK293T cells (human cytomegalovirus, UniProt P16837 1-171; P16772 1-214); experiment: cell-based or functional assay
T2 sequence (P16837 whole entry, chain 1 of 2): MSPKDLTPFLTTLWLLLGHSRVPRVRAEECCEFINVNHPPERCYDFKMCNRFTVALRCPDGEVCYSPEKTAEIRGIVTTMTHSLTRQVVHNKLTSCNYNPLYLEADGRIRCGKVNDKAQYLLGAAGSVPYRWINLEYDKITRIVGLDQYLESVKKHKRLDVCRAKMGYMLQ
T2 sequence (P16772 whole entry, chain 2 of 2): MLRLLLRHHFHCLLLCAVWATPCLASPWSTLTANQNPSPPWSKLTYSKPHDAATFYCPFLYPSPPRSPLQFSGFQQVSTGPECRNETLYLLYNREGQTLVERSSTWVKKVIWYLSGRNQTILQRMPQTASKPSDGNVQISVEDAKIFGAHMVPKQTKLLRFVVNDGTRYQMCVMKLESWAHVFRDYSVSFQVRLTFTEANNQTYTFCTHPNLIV

[4] = biological target: T1, hCMV gH, gL, UL128, UL130 and UL131A …; experiment: cell cross-competition, 20x excess; competitor 8I21-biotin
[5] = biological target: T1, hCMV gH, gL, UL128, UL130 and UL131A …; experiment: cell cross-competition, 20x excess; competitor 4I22-biotin
[6] = biological target: T1, hCMV gH, gL, UL128, UL130 and UL131A …; experiment: cell cross-competition, 20x excess; competitor 2C12-biotin
[7] = biological target: T1, hCMV gH, gL, UL128, UL130 and UL131A …; experiment: cell cross-competition, 20x excess; competitor 8C15-biotin
[8] = biological target: T1, hCMV gH, gL, UL128, UL130 and UL131A …; experiment: cell cross-competition, 20x excess; competitor 1F11-biotin
[9] = biological target: T1, hCMV gH, gL, UL128, UL130 and UL131A …; experiment: cell cross-competition, 20x excess; competitor 8J16-biotin
[10] = biological target: T1, hCMV gH, gL, UL128, UL130 and UL131A …; experiment: cell cross-competition, 20x excess; competitor 6G4-biotin
[11] = biological target: T2, hCMV UL128, UL130 and UL131A …; experiment: cell-based or functional assay; remark: listed apart in the source
[12] = biological target: T1, hCMV gH, gL, UL128, UL130 and UL131A …; experiment: cell cross-competition, 20x excess; competitor 15D8-biotin
[13] = biological target: T1, hCMV gH, gL, UL128, UL130 and UL131A …; experiment: cell cross-competition, 20x excess; competitor 4N10-biotin
[14] = biological target: T1, hCMV gH, gL, UL128, UL130 and UL131A …; experiment: cell cross-competition, 20x excess; competitor 10F7-biotin
[15] = biological target: T1, hCMV gH, gL, UL128, UL130 and UL131A …; experiment: cell cross-competition, 20x excess; competitor 5A2-biotin

B1: 8J16 (antibody, V domains shown)
VH: QVQLQESGPGLVKPSETLSLTCSVSGGFTSSYYWSWIRQAPGKGLEWIGYVYYGESTDYNPSLKSRATISIDTSKNQFSLKLSSVTAADTAVYYCAREVDKRGFDYWGQGALVTVSS
VL: EIVLTQSPGTLSLSPGERATLSCRASQSVSGGYLAWYQQEPGQAPRLVIYGASSRATGIPDRFSASGSGTDFTLTITRLEPEDFAVYYCQQYGRTPLTFGGGTKVEIK
notes: human IgG mAb; also called 8J16-biotin
Question: Which results are given for B1?
Answer: Inhibition of binding (%) [1]: 70%; Inhibition of binding (%) [2]: 0%; 50% Neutralization ARPE (hCMV VR1814) [3]: < 0.001 µg/mL; 50% Neutralization MRC-9 (hCMV VR1814) [3]: > 2 µg/mL; Inhibition of binding (%) [4]: 0%; Inhibition of binding (%) [5]: 0%; Inhibition of binding (%) [6]: 100%; Inhibition of binding (%) [7]: 100%; Inhibition of binding (%) [8]: 0%; Inhibition of binding (%) [9]: 100%; Inhibition of binding (%) [10]: 100%; 90% Neutralization ARPE (hCMV VR1814) [11]: 0.0008 µg/mL; 90% Neutralization MRC-9 (hCMV VR1814) [11]: > 10 µg/mL

B2: 7I13 (antibody, V domains shown)
VH: QVQLVESGGGVVQPGRSLRLSCAASGFTFSNYGMHWVRQGPGKGLEWVAVISYDASSKYYTDSVQGRFTISRDNSKNTLFLQMNSLRGEDTAVYYCAKALRYLDWFLSDPFDYWGQGTLVTVSS
VL: EIVLTQSPGTLSLSPGERATLSCRASQSVSSDFLAWYQQKPGQAPRLLIYGASSRATGIPDRFSGSGSGTDFTLTISRLEPEDFAVYYCQQYAASPPFGQGTRLEIK
notes: human IgG mAb
Question: B2 was tested. Which “Inhibition of binding (%)” value [1] did it give?
Answer: 0%

Question: And the “50% Neutralization ARPE (hCMV VR1814)” value [3]?
Answer: < 0.01 µg/mL

Question: And the “50% Neutralization MRC-9 (hCMV VR1814)” value [3]?
Answer: > 2 µg/mL

Question: What about the “Inhibition of binding (%)” value [4] of the same binder?
Answer: 0%

Question: What about the “Inhibition of binding (%)” value [6] of the same binder?
Answer: 0%

Question: And the “Inhibition of binding (%)” value [7]?
Answer: 0%

Question: What about the “Inhibition of binding (%)” value [8] of the same binder?
Answer: 0%

Question: And the “Inhibition of binding (%)” value [9]?
Answer: 0%

Question: What about the “Inhibition of binding (%)” value [10] of the same binder?
Answer: 0%

Question: What about the “90% Neutralization ARPE (hCMV VR1814)” value [11] of the same binder?
Answer: 0.008 µg/mL

Question: And the “90% Neutralization MRC-9 (hCMV VR1814)” value [11]?
Answer: > 10 µg/mL

B3: 7B13 (antibody, V domains shown)
VH: QVQLVESGGGVVQPGGSLRLSCAASGFSFSNYGMHWVRQAPGKGLEWVALIPSDGNYQYYTDSVKGRFTVSRDNSRNTLYLQMKSLRAEDTARYHCAHLGGGLFDFWGQGTLVTVSS
VL: QSALNQPRSVSGSPGQSVSISCTGSSSDVGGYEFVSWYQHHPGKAPKLIIYDVDKRPSGVPDRFSGSRSGDTASLTISGLQAEDEADYYCYSSADTWVFGGGTKLTVL
notes: human IgG mAb
Question: How did the “Inhibition of binding (%)” value [1] turn out when B3 was run?
Answer: 100%

Question: What about the “50% Neutralization ARPE (hCMV VR1814)” value [3] of the same binder?
Answer: < 0.001 µg/mL

Question: And the “50% Neutralization MRC-9 (hCMV VR1814)” value [3]?
Answer: > 2 µg/mL

Question: And the “Inhibition of binding (%)” value [4]?
Answer: 0%

Question: And the “Inhibition of binding (%)” value [6]?
Answer: 100%

Question: And the “Inhibition of binding (%)” value [7]?
Answer: 100%

Question: And the “Inhibition of binding (%)” value [9]?
Answer: 100%

Question: What about the “Inhibition of binding (%)” value [10] of the same binder?
Answer: 100%

Question: And the “90% Neutralization ARPE (hCMV VR1814)” value [11]?
Answer: 0.003 µg/mL

Question: What about the “90% Neutralization MRC-9 (hCMV VR1814)” value [11] of the same binder?
Answer: > 10 µg/mL

B4: 8C15 (antibody, V domains shown)
VH: QVQLQESGPGLVKPSETLSLTCTVSGGSIRSYYWSWIRQPPGKGLEWIGHIYYSGNTNYSPSLQSRVTISLDTPKNQFSLRLSSVTAADTAVYYCARHDVIVVRGVFDVWGQGTVVTVSS
VL: QSALTQPASVSGSPGQSITISCTGTSSDIGTYNLVSWYQQHPGKAPKVLIYDGSKRPSGVSSRFSASKSGNTASLTISGLQAEDETDYYCCSYAGTSDFFVVFGGGTKLTVL
notes: human IgG mAb; also called 8C15-biotin
Question: With B4 as the binder, how does the “Inhibition of binding (%)” value [1] read?
Answer: 100%

Question: What about the “50% Neutralization ARPE (hCMV VR1814)” value [3] of the same binder?
Answer: < 0.001 µg/mL

Question: And the “50% Neutralization MRC-9 (hCMV VR1814)” value [3]?
Answer: > 2 µg/mL

Question: What about the “Inhibition of binding (%)” value [4] of the same binder?
Answer: 0%

Question: And the “Inhibition of binding (%)” value [5]?
Answer: 0%

Question: And the “Inhibition of binding (%)” value [6]?
Answer: 100%

Question: And the “Inhibition of binding (%)” value [7]?
Answer: 100%

Question: And the “Inhibition of binding (%)” value [9]?
Answer: 100%

Question: And the “Inhibition of binding (%)” value [10]?
Answer: 100%

Question: What about the “90% Neutralization ARPE (hCMV VR1814)” value [11] of the same binder?
Answer: 0.0025 µg/mL

Question: What about the “90% Neutralization MRC-9 (hCMV VR1814)” value [11] of the same binder?
Answer: > 10 µg/mL

B5: 9I6 (antibody, V domains shown)
VH: EVQLVQSGAEVKKPGESLKISCRESGDTFPAYWIAWVRQMPGKGLEWMGIIYPIDSETTYSPSFQGQVTISADKSINTAYLQWSSLKASDSAIYYCARGTSTGLREAFHIWGQGTMVTVSS
VL: DVVMTQSPLSLAVTLGQPAYISCRSSQSLGYSDGNTYLNWFQQRPGQSPRRLIYEVSNRDSGVPDRFSGSGSGTDFTLKISRVEAEDVGTYYCMQGTHWPPMCSFGQGTKLEIK
notes: human IgG mAb; also called 9I6-biotin; 916
Question: B5 was tested. Which “Inhibition of binding (%)” value [1] did it give?
Answer: 100%

Question: What about the “Inhibition of binding (%)” value [2] of the same binder?
Answer: 0%

Question: And the “50% Neutralization ARPE (hCMV VR1814)” value [3]?
Answer: < 0.001 µg/mL

Question: What about the “50% Neutralization MRC-9 (hCMV VR1814)” value [3] of the same binder?
Answer: > 2 µg/mL

Question: What about the “Inhibition of binding (%)” value [4] of the same binder?
Answer: 0%

Question: What about the “Inhibition of binding (%)” value [5] of the same binder?
Answer: 0%

Question: What about the “Inhibition of binding (%)” value [6] of the same binder?
Answer: 100%

Question: What about the “Inhibition of binding (%)” value [7] of the same binder?
Answer: 100%

Question: And the “Inhibition of binding (%)” value [8]?
Answer: 0%

Question: And the “Inhibition of binding (%)” value [9]?
Answer: 100%

Question: What about the “Inhibition of binding (%)” value [10] of the same binder?
Answer: 100%

Question: What about the “90% Neutralization ARPE (hCMV VR1814)” value [11] of the same binder?
Answer: 0.0007 µg/mL

Question: And the “90% Neutralization MRC-9 (hCMV VR1814)” value [11]?
Answer: > 10 µg/mL

B6: 2C12 (antibody, V domains shown)
VH: QITLRESGPTLVKPTQTLTLTCTFSGFSLNTNGVGVGWIRQPPGKALEWLALIYWNGNEGYSPSLKSRLTITKDTSKNQVVLTMTNMDPVDTATYYCVHWPQGLTTVTRLAFDIWGQGTMVTVSS
VL: QSALTQPRSVSGSPGQSVTISCTGTTSDVGRYNFVSWYQQHPGKAPKLLMYDVSQRPSGVPSRFSGSKSGNTASLTISGLQAEDEAVFYCCSYAGGNFFSYVFGTGTKVTVL
notes: human IgG mAb; also called 2C12-biotin
Question: For B6, which “Inhibition of binding (%)” value [1] is on record?
Answer: 100%

Question: And the “Inhibition of binding (%)” value [2]?
Answer: 0%

Question: What about the “50% Neutralization ARPE (hCMV VR1814)” value [3] of the same binder?
Answer: < 0.01 µg/mL

Question: What about the “50% Neutralization MRC-9 (hCMV VR1814)” value [3] of the same binder?
Answer: ≤ 2 µg/mL

Question: And the “Inhibition of binding (%)” value [4]?
Answer: 0%

Question: What about the “Inhibition of binding (%)” value [5] of the same binder?
Answer: 0%

Question: And the “Inhibition of binding (%)” value [12]?
Answer: 0%

Question: And the “Inhibition of binding (%)” value [6]?
Answer: 100%

Question: And the “Inhibition of binding (%)” value [7]?
Answer: 100%

Question: And the “Inhibition of binding (%)” value [13]?
Answer: 0%

Question: And the “Inhibition of binding (%)” value [14]?
Answer: 0%

Question: What about the “Inhibition of binding (%)” value [8] of the same binder?
Answer: 0%

Question: And the “Inhibition of binding (%)” value [9]?
Answer: 100%

Question: And the “Inhibition of binding (%)” value [10]?
Answer: 100%

Question: And the “90% Neutralization ARPE (hCMV VR1814)” value [11]?
Answer: 0.006 µg/mL

Question: And the “90% Neutralization MRC-9 (hCMV VR1814)” value [11]?
Answer: > 10 µg/mL

Question: And the “Inhibition of binding (%)” value [15]?
Answer: 0%
